# Measurements as given in US20230058316A1, “PEGYLATED IGE-DEPENDENT HISTAMINE-RELEASING FACTOR (HRF)-BINDING PEPTIDE AND USE THEREOF” (EWHA UNIVERSITY - INDUSTRY COLLABORATION FOUNDATION, priority 2020, published 2023).
# Where no end group is shown, it is not given here.
# Experiment: Pharmacokinetic analysis in ICR mice
# Type: in vivo
# Settings: IV, 10 mg/kg
# Method: The dTBP2 of Preparative Examples 4 and Example 3 was added to a solution prepared in DMSO:PEG400:DW=5:55:40, and this was administered at the concentration of 5 mL/kg. Blood samples were taken at 0.083, 0.25, 0.5, 1, 2, 4, and 8 hours post injection. The blood was centrifuged at 4° C., 3000 rpm for 10 minutes, to which cold acetonitrile containing internal standard was added in an amount 4 times the plasma component, and then deproteinization was carried out. After centrifugation again at 4° C., 13000 rpm for 10 minutes, the supernatant was collected and analyzed by Agilent 6460 LC-MS/MS. Pharmacokinetic analysis was performed with Phoenix WinNonlin (Pharsight ver 6.4, USA) using a non-compartmental analysis model.
substance,measurement,setting,value
Example 3: dTBP2 (WYVYPSM) conjugated at the N-terminal with methoxy polyethylene glycol propionaldehyde (10 kDa) ({mPEG propionaldehyde 10 kDa}-WYVYPSM),AUClast,,2830 ng·h/mL
same,AUC∞,,3150 ng·h/mL
same,CL (clearance from plasma),,54.8 mL/min/kg
same,T1/2 (half life),,3.18 h
same,Vss (steady-state volume of distribution),,7.37 L/kg
same,increase of half-life compared to the dTBP2 of Preparative Example 4,,about 1.6 times
same,initial plasma concentration relative to the dTBP2 of Preparative Example 4,,about 1000 times
same,stability in plasma,"FIG. 26, versus Preparative Example 4",improved
